What was measured:
Test in all cases: purified protein
[1] = substrate: COc1ccccc1O; details: McIlvaine buffer, 30 °C, 10 min, apparent Km
[2] = substrate: CCn1c(=NN=c2sc3cc(S(=O)(=O)O)ccc3n2CC)sc2cc(S(=O)(=O)O)ccc21; type: biochemical, Coprinopsis cinerea; details: McIlvaine buffer (pH 2.6 in the standard assay), 30 °C, 10 min, apparent Km
[3] = substrate: COc1cccc(OC)c1O; type: biochemical, Coprinopsis cinerea; details: McIlvaine buffer, 30 °C, 10 min, apparent Km

B1: CcLcc2 (laccase 2) (Coprinopsis cinerea okayama7#130) (protein)
chain: AIGPSTNLVVANKVIAPDGFSRSAVLAGATQPTVQFPGPVIQGNKNSFFAINVIDALTDPTMLRTTSIHWHGMFQRGTAWADGPAGVTQCPISPGHSFLYKFQALNQAGTFWYHSHHESQYCDGLRGAMVVYDPVDPHRNLYDIDNEATIITLADWYHVPAPSAGLVPTPDSTLINGKGRYAGGPTVPLAVISVTRNRRYRFRLVSLSCDPNYVFSIDGHTMTVIEVDGVNVQPLVVDSIQIFAGQRYSFVLNANRPVGNYWVRANPNIGTTGFVGGVNSAILRYVGASNTDPTTTQTPFSNPLLETNLHPLTNPAAPGLPTPGGVDVAINLNTVFDFSSLTFSVNGATFHQPPVPVLLQIMSGAQTAQQLLPSGSVYVLPRNKVIELSMPGGSTGSPHPFHLHGHEFAVVRSAGSSTYNFANPVRRDVVSAGVAGDNVTIRFRTDNPGPWILHCHIDWHLVLGLAVVFAEDAPTVATMDPPPAWDQLCPIYDALPPNT
[1]
  Km: 28070 µM
  Vmax: 2.46 µmol/min/mg
  kcat: 3.12 s⁻¹
  kcat/Km: 111 M⁻¹ s⁻¹
[2]
  Km: 930 µM
  Vmax: 667 µmol/min/mg
  kcat: 847 s⁻¹
  kcat/Km: 911000 M⁻¹ s⁻¹
[3]
  Km: 1020 µM
  Vmax: 57.5 µmol/min/mg
  kcat: 73 s⁻¹
  kcat/Km: 71600 M⁻¹ s⁻¹

Reference: PMC4433907, “Heterologous expression and characterization of laccase 2 from Coprinopsis cinerea capable of decolourizing different recalcitrant dyes” (Biotechnology, Biotechnological Equipment, 2014)
